Measured values from patent publication US20110312522A1, “METHODS OF DETECTION OF CANCER USING PEPTIDE PROFILES” (Sloan-Kettering Institute for Cancer Research, priority 2005, published 2011).
Ends that are not written are not given here.

How the values were obtained:
[1] = Degradation of synthetic peptides in control serum and plasma (MALDI-TOF MS-based protease assay); format: in vitro ADME, human
Source text: A large part of the human serum ‘peptidome’, as detected by MALDI-TOF MS, is generated ex vivo (i.e., after blood collection) by protease degradation of blood proteins. Endoproteases produce ‘founder peptides’ which are then pared down by exoproteases into ladder-like clusters. Panels of proteolytic activity in the blood contribute important cancer type-specific information, and that the resulting metabolic patterns have utility as surrogate markers for detection and classification of cancer. Degradation occurs during clotting. The use of exogenous synthetic peptides, identical to previously observed founder peptides, can be used to monitor cancer-specific proteolytic degradation in plasma or serum that contains proteases. Conditions in terms of time, temperature and added amounts of substrates can hereby be readily controlled. Coupled to a MALDI-based read-out, such analyses are blood “protease assays” to monitor the tumor-dependent activities inferred from prior studies. Simultaneous addition of non-degradable, exogenous reference peptides also enables relative quantitation of all rungs in the ladders.
The degradation conditions and times were studied for C3f and FPA in serum and plasma as described above. […] 2 picomoles [^13C-Leu]-labeled C3f was incubated for 30 min at RT with […] aliquots of serum from 20 different breast cancer patients and 20 control samples. […]

[2] = Degradation of synthetic peptides added to fresh plasma, MALDI-TOF MS read-out; format: in vitro ADME, human
Method: In an effort to begin to understand the presence and roles of exoproteases, synthetic C3f was added to fresh plasma at a concentration close to that observed in serum. […] The resulting pattern was similar to the endogenous one observed in serum and also illustrated the disparate ion intensities for different rungs in the ladder.

Row | Substance | degradation in control serum and plasma (in words) [1] | degradation time [1] | exoproteolytic degradation in plasma (in words) [2]
1 | FPA: synthetic fibrinopeptide A, N-terminally cleaved from fibrinogen by thrombin (ADSGEGDFLAEGGGVR; Fibrinopeptide A; UniProt P02671 20-35, looked up) | readily degraded | up to 4 hours | followed a similar time course
2 | FPB: fibrinopeptide B, added to plasma like synthetic FPA (QGVNDNEEGFFSAR; ends and bridges not checked; UniProt P02675 31-44, looked up) | – | – | completely degraded in just a few minutes
